According to patent US20200138870A1, “RECREATION OF PANCREATIC NICHE ALLOWS FOR NOVEL METHODS FOR HUMAN, MATURE BETA DERIVATION FROM PLURIPOTENT STEM CELLS” (Baylor College of Medicine, priority 2016, published 2020):

B1: SERPINF1: niche-derived secreted factor (R&D), 500 ng/ml or 1 μg/ml (protein, UniProt P36955 20-418, looked up)
Pigment epithelium-derived …: QNPASPPEEGSPDPDSTGALVEEEDPFFKVPVNKLAAAVSNFGYDLYRVRSSTSPTTNVLLSPLSVATALSALSLGAEQRTESIIHRALYYDLISSPDIHGTYKELLDTVTAPQKNLKSASRIVFEKKLRIKSSFVAPLEKSYGTRPRVLTGNPRLDLQEINNWVQAQMKGKLARSTKEIPDEISILLLGVAHFKGQWVTKFDSRKTSLEDFYLDEERTVRVPMMSDPKAVLRYGLDSDLSCKIAQLPLTGSMSIIFFLPLKVTQNLTLIEESLTSEFIHDIDRELKTVQAVLTVPKLKLSYEGEVTKSLQEMKLQSLFDSPDFSKITGKPIKLTQVEHRAGFEWNEDGAGTTPSPGLQPAHLTFPLDYHLNQPFIFVLRDTDTGALLFIGKILDPRGP
B2: WNT5B: a WNT5A paralog (protein, UniProt Q9H1J7 18-359, looked up)
Protein Wnt-5b: QLLTDANSWWSLALNPVQRPEMFIIGAQPVCSQLPGLSPGQRKLCQLYQEHMAYIGEGAKTGIKECQHQFRQRRWNCSTADNASVFGRVMQIGSRETAFTHAVSAAGVVNAISRACREGELSTCGCSRTARPKDLPRDWLWGGCGDNVEYGYRFAKEFVDAREREKNFAKGSEEQGRVLMNLQNNEAGRRAVYKMADVACKCHGVSGSCSLKTCWLQLAEFRKVGDRLKEKYDSAAAMRVTRKGRLELVNSRFTQPTPEDLVYVDPSPDYCLRNESTGSLGTQGRLCNKTSEGMDGCELMCCGRGYNQFKSVQVERCHCKFHWCCFVRCKKCTEIVDQYICK
B3: Endocan: niche-derived secreted factor (R&D), 1 or 5 ng/ml (protein, UniProt Q9NQ30 20-184, looked up)
Endothelial cell-specific …: WSNNYAVDCPQHCDSSECKSSPRCKRTVLDDCGCCRVCAAGRGETCYRTVSGMDGMKCGPGLRCQPSNGEDPFGEEFGICKDCPYGTFGMDCRETCNCQSGICDRGTGKCLKFPFFQYSVTKSSNRFVSLTEHDMASGDGNIVREEVVKENAAGSPVMRKWLNPR
B4: PDPN: podoplanin, a mucin-type transmembrane glycoprotein (protein, UniProt Q86YL7 23-162, looked up)
Podoplanin: ASTGQPEDDTETTGLEGGVAMPGAEDDVVTPGTSEDRYKSGLTTLVATSVNSVTGIRIEDLPTSESTVHAQEQSPSATASNVATSHSTEKVDGDTQTTVEKDGLSTVTLVGIIVGVLLAIGFIGAIIVVVMRKMSGRYSP
B5: Gremlin1: a BMP antagonist upregulated in Wk17.5h and 20.1 M-E primary cells (protein, UniProt O60565 25-184, looked up)
Gremlin-1: KKKGSQGAIPPPDKAQHNDSEQTQSPQQPGSRNRGRGQGRGTAMPGEEVLESSQEALHVTERKYLKRDWCKTQPLKQTIHEEGCNSRTIINRFCYGQCNSFYIPRHIRKEEGSFQSCSFCKPKKFTTMMVTLNCPELQPPTKKKRVTRVKQCRCISIDLD

System: hESC-derived EPs
Assay: Growth factor treatment of hESC-derived EPs for 3 days, immunofluorescence quantification of marker-positive cells
Assay type: cell-based, human
Settings: for increase in number of ISL1+ cells: high concentration treatment; for INS+ cell numbers (in words): two concentrations
Procedure: hESC, ISL1-EGFP Hues8 and H1, were maintained under a feeder-free system on Geltrex (Invitrogen) in TeSR-E8 media (Stemcell Technologies). Cells were passaged at 70-80% confluence using TrypLE (Invitrogen). After dissociation, cells were seeded in TeSR-E8 media+10 μM Y-27632 for 24h. Differentiation was started when cells were 90% confluent. The following media and growth factors/small molecules (see also Table 3) were used: Day1: MCDB-131 media with 0.1% BSA+10 mM glucose+ActivinA and CHIR99021. Day2-3: MCDB-131 media+0.1% BSA+10 mM glucose+ActivinA. Day4-5: MCDB-131+0.1% BSA, 10 mM glucose, VitC+KGF. Day6-9: MCDB-131 2% BSA+5.5 mM glucose+Vit.C+ITS (Invitrogen)+ActivinA+KGF+RA+SANT-1+Noggin. Day10-12: MCDB-131+2% BSA+5.5 mM glucose+VitC+ITS+SANT-1+Noggin+PdBU. Day13-15: MCDB-131+2% BSA+5.5 mM glucose+VitC+ITS+Noggin+AlK5i. EPs were dissociated and seeded as 25,000 cells/well on Geltrex-coated 96-well plates in DMEM media (Invitrogen) with B27 Supplement (Thermo Fisher Scientific), later called B27 media, supplemented with 10 µM Y-27632 for 24h. Growth factors (Table 3) were added to B27 media, at two concentrations, and tested on EPs for 3 days. After 3 days, cells were PBS washed, fixed with 4% PFA/PBS for 20 min at room temperature (RT), washed twice with PBS and stained.
Cells were incubated with 5% donkey serum (Jackson ImmunoResearch Laboratories) in PBST (PBS+0.1% Triton-X) for 30 min to avoid nonspecific binding of the antibody and to permeabilize the cells. Primary antibodies, diluted in 5% donkey serum in PBST, were then added and incubated at 4° C. overnight with shaking. After primary antibody incubation, cells were washed 3 times with PBST and secondary antibodies conjugated with Alexa-Fluor Dyes (Jackson ImmunoResearch Laboratories) and diluted in 5% donkey serum in PBST were added to the cells for 30 min at RT. Then, cells were thrice washed with PBST and nuclei were stained with Dapi (Roche Diagnostics). For imaging, Leica DMI6000 or confocal Leica TCS SPE was used. Images were initially processed by LAS X software and then further analyzed and quantified using ImageJ software (NIH, W Rasband, http://rsb.info.nih.gov/ij) using cell counter plug-in. Typically, at least 5 randomly selected images were counted per condition.

[1] = 200 ng/ml Gremlin1, 3 days, vs untreated

Row | Molecule | effect on the number of CHGA+ and INS+ cells (in words) (3 days treatment of EPs) | increase in number of ISL1+ cells (3 days) | numbers of ISL1-eGFP, CHGA+, INS+ and C-peptide+ cells over untreated controls (in words) (3 days treatment of EPs) | also measured
1 | HGF: growth factor (R&D), 50 or 100 ng/ml | little or no effect | ~2 fold |  | 
2 | IGF: growth factor (R&D), 10 or 50 ng/ml | little or no effect | ~2 fold |  | 
3 | THBS2: growth factor (R&D), 5 or 1 μg/ml | little or no effect | ~2 fold |  | 
4 | B1 |  |  | increased | 
5 | B2 |  |  |  | INS+ cell numbers (in words) (3 days treatment of EPs): increased INS+ cell numbers in a dose-dependent manner
6 | B3 |  |  | increased | number of CHGA+ cells (in words) (3 days treatment of EPs): significant increase; INS+ cell numbers (in words) (3 days treatment of EPs): moderate effect
7 | B4 |  |  | increased | increase in number of CHGA+ cells (high concentration, 3 days): 3 fold; increase in number of INS+ cells (high concentration, 3 days): 3 fold
8 | B5 |  |  |  | increase in CHGA+ cell numbers [1]: 5 fold; increase in INS+ cell numbers [1]: 5 fold; decrease in the number of GCG+ cells (3-day EP treatment, vs untreated control): 3 fold
